Experimental data from article PMC6506404.
Blank lines part the entries; values can stand above or below the substance they belong to.

Assays:
Assay in all cases: cryo-EM structure
[1] = target: BMC-T^D2 shell protein of the Haliangium ochraceum (HO) BMC shell (Haliangium ochraceum) (UniProt D0LID6)
[2] = target: BMC-T^D3 shell protein of the Haliangium ochraceum (HO) BMC shell (Haliangium ochraceum) (UniProt D0LV02)
[3] = target: BMC-T^S1 shell protein of the Haliangium ochraceum (HO) BMC shell (Haliangium ochraceum)

stoichiometry N [1]: 6
Substance: BMC-T^D2 shell protein of the Haliangium ochraceum (HO) BMC shell (from UniProt D0LID6 1-212) (natural protein)

stoichiometry N [2]: 6
Substance: BMC-T^D3 shell protein of the Haliangium ochraceum (HO) BMC shell (from UniProt D0LV02 1-206) (natural protein)

stoichiometry N [3]: 3
Substance: BMC-T^S1 shell protein of the Haliangium ochraceum (HO) BMC shell (natural protein)
